Patent publication US20210388087A1 (Chugai, published 2021)

T1: Human CD3eg linker (human)
T1 construct: Single chain: epsilon and gamma subunits of human CD3 joined by a 29-mer linker, Flag-tag at the C-terminus; also called recombinant human CD3
T1 chain: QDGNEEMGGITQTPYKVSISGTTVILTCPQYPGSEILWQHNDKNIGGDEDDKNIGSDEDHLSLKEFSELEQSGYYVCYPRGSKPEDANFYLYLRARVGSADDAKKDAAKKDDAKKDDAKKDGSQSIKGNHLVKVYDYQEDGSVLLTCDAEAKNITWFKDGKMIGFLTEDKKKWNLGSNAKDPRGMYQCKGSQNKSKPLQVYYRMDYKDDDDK


Biological target: T1, Human CD3eg linker
Test: Biacore SPR, vs template H183/L072

Binder | fold change of affinity
H183/L072 VH S62P (antibody, name in Kabat numbering, V domains shown) VH: QVQLVESGGGLVQPGRSLRLSCAASGFTFSNAWMHWVRQAPGKGLEWVAQIKDKGNAYAAYYAPPVKGRFTISRDDSKNSIYLQMNSLKTEDTAVYYCHYVHYASASTVLPAFGVDAWGQGTTVTVSS VL: DIVMTQSPLSLPVTPGEPASISCQASQELVHMNRNTYLHWYQQKPGQAPRLLIYKVSNRFPGVPDRFSGSGSGTDFTLKISRVEAEDVGVYYCAQGTSVPFTFGQGTKLEIK | 1.3 fold
H183/L072 VH S100aL (antibody, name in Kabat numbering, V domains shown) VH: QVQLVESGGGLVQPGRSLRLSCAASGFTFSNAWMHWVRQAPGKGLEWVAQIKDKGNAYAAYYAPSVKGRFTISRDDSKNSIYLQMNSLKTEDTAVYYCHYVHYASALTVLPAFGVDAWGQGTTVTVSS VL: DIVMTQSPLSLPVTPGEPASISCQASQELVHMNRNTYLHWYQQKPGQAPRLLIYKVSNRFPGVPDRFSGSGSGTDFTLKISRVEAEDVGVYYCAQGTSVPFTFGQGTKLEIK | 1.1 fold
H183/L072 VH S100aI (antibody, name in Kabat numbering, V domains shown) VH: QVQLVESGGGLVQPGRSLRLSCAASGFTFSNAWMHWVRQAPGKGLEWVAQIKDKGNAYAAYYAPSVKGRFTISRDDSKNSIYLQMNSLKTEDTAVYYCHYVHYASAITVLPAFGVDAWGQGTTVTVSS VL: DIVMTQSPLSLPVTPGEPASISCQASQELVHMNRNTYLHWYQQKPGQAPRLLIYKVSNRFPGVPDRFSGSGSGTDFTLKISRVEAEDVGVYYCAQGTSVPFTFGQGTKLEIK | 1 fold
H183/L072 VH S99P (antibody, name in Kabat numbering, V domains shown) VH: QVQLVESGGGLVQPGRSLRLSCAASGFTFSNAWMHWVRQAPGKGLEWVAQIKDKGNAYAAYYAPSVKGRFTISRDDSKNSIYLQMNSLKTEDTAVYYCHYVHYAPASTVLPAFGVDAWGQGTTVTVSS VL: DIVMTQSPLSLPVTPGEPASISCQASQELVHMNRNTYLHWYQQKPGQAPRLLIYKVSNRFPGVPDRFSGSGSGTDFTLKISRVEAEDVGVYYCAQGTSVPFTFGQGTKLEIK | 0.6 fold
H183/L072 VH S100aP (antibody, name in Kabat numbering, V domains shown) VH: QVQLVESGGGLVQPGRSLRLSCAASGFTFSNAWMHWVRQAPGKGLEWVAQIKDKGNAYAAYYAPSVKGRFTISRDDSKNSIYLQMNSLKTEDTAVYYCHYVHYASAPTVLPAFGVDAWGQGTTVTVSS VL: DIVMTQSPLSLPVTPGEPASISCQASQELVHMNRNTYLHWYQQKPGQAPRLLIYKVSNRFPGVPDRFSGSGSGTDFTLKISRVEAEDVGVYYCAQGTSVPFTFGQGTKLEIK | 1.1 fold
H183/L072 VH S99A (antibody, name in Kabat numbering, V domains shown) VH: QVQLVESGGGLVQPGRSLRLSCAASGFTFSNAWMHWVRQAPGKGLEWVAQIKDKGNAYAAYYAPSVKGRFTISRDDSKNSIYLQMNSLKTEDTAVYYCHYVHYAAASTVLPAFGVDAWGQGTTVTVSS VL: DIVMTQSPLSLPVTPGEPASISCQASQELVHMNRNTYLHWYQQKPGQAPRLLIYKVSNRFPGVPDRFSGSGSGTDFTLKISRVEAEDVGVYYCAQGTSVPFTFGQGTKLEIK | 1 fold
H183/L072 VH S99I (antibody, name in Kabat numbering, V domains shown) VH: QVQLVESGGGLVQPGRSLRLSCAASGFTFSNAWMHWVRQAPGKGLEWVAQIKDKGNAYAAYYAPSVKGRFTISRDDSKNSIYLQMNSLKTEDTAVYYCHYVHYAIASTVLPAFGVDAWGQGTTVTVSS VL: DIVMTQSPLSLPVTPGEPASISCQASQELVHMNRNTYLHWYQQKPGQAPRLLIYKVSNRFPGVPDRFSGSGSGTDFTLKISRVEAEDVGVYYCAQGTSVPFTFGQGTKLEIK | 0.7 fold
H183/L072 VH T28A (antibody, name in Kabat numbering, V domains shown) VH: QVQLVESGGGLVQPGRSLRLSCAASGFAFSNAWMHWVRQAPGKGLEWVAQIKDKGNAYAAYYAPSVKGRFTISRDDSKNSIYLQMNSLKTEDTAVYYCHYVHYASASTVLPAFGVDAWGQGTTVTVSS VL: DIVMTQSPLSLPVTPGEPASISCQASQELVHMNRNTYLHWYQQKPGQAPRLLIYKVSNRFPGVPDRFSGSGSGTDFTLKISRVEAEDVGVYYCAQGTSVPFTFGQGTKLEIK | 0 fold
H183/L072 VH S99L (antibody, name in Kabat numbering, V domains shown) VH: QVQLVESGGGLVQPGRSLRLSCAASGFTFSNAWMHWVRQAPGKGLEWVAQIKDKGNAYAAYYAPSVKGRFTISRDDSKNSIYLQMNSLKTEDTAVYYCHYVHYALASTVLPAFGVDAWGQGTTVTVSS VL: DIVMTQSPLSLPVTPGEPASISCQASQELVHMNRNTYLHWYQQKPGQAPRLLIYKVSNRFPGVPDRFSGSGSGTDFTLKISRVEAEDVGVYYCAQGTSVPFTFGQGTKLEIK | 0.8 fold
H183/L072 VH S100aA (antibody, name in Kabat numbering, V domains shown) VH: QVQLVESGGGLVQPGRSLRLSCAASGFTFSNAWMHWVRQAPGKGLEWVAQIKDKGNAYAAYYAPSVKGRFTISRDDSKNSIYLQMNSLKTEDTAVYYCHYVHYASAATVLPAFGVDAWGQGTTVTVSS VL: DIVMTQSPLSLPVTPGEPASISCQASQELVHMNRNTYLHWYQQKPGQAPRLLIYKVSNRFPGVPDRFSGSGSGTDFTLKISRVEAEDVGVYYCAQGTSVPFTFGQGTKLEIK | 0.8 fold
H183/L072 VH S99M (antibody, name in Kabat numbering, V domains shown) VH: QVQLVESGGGLVQPGRSLRLSCAASGFTFSNAWMHWVRQAPGKGLEWVAQIKDKGNAYAAYYAPSVKGRFTISRDDSKNSIYLQMNSLKTEDTAVYYCHYVHYAMASTVLPAFGVDAWGQGTTVTVSS VL: DIVMTQSPLSLPVTPGEPASISCQASQELVHMNRNTYLHWYQQKPGQAPRLLIYKVSNRFPGVPDRFSGSGSGTDFTLKISRVEAEDVGVYYCAQGTSVPFTFGQGTKLEIK | 0.9 fold
H183/L072 VH S100aM (antibody, name in Kabat numbering, V domains shown) VH: QVQLVESGGGLVQPGRSLRLSCAASGFTFSNAWMHWVRQAPGKGLEWVAQIKDKGNAYAAYYAPSVKGRFTISRDDSKNSIYLQMNSLKTEDTAVYYCHYVHYASAMTVLPAFGVDAWGQGTTVTVSS VL: DIVMTQSPLSLPVTPGEPASISCQASQELVHMNRNTYLHWYQQKPGQAPRLLIYKVSNRFPGVPDRFSGSGSGTDFTLKISRVEAEDVGVYYCAQGTSVPFTFGQGTKLEIK | 0.8 fold

Results, then the binder that gave them:

fold change of affinity | Binder
0.6 fold | H183/L072 VH T28E (antibody, name in Kabat numbering, V domains shown) VH: QVQLVESGGGLVQPGRSLRLSCAASGFEFSNAWMHWVRQAPGKGLEWVAQIKDKGNAYAAYYAPSVKGRFTISRDDSKNSIYLQMNSLKTEDTAVYYCHYVHYASASTVLPAFGVDAWGQGTTVTVSS VL: DIVMTQSPLSLPVTPGEPASISCQASQELVHMNRNTYLHWYQQKPGQAPRLLIYKVSNRFPGVPDRFSGSGSGTDFTLKISRVEAEDVGVYYCAQGTSVPFTFGQGTKLEIK
2.7 fold | H183/L072 VH T28K (antibody, name in Kabat numbering, V domains shown) VH: QVQLVESGGGLVQPGRSLRLSCAASGFKFSNAWMHWVRQAPGKGLEWVAQIKDKGNAYAAYYAPSVKGRFTISRDDSKNSIYLQMNSLKTEDTAVYYCHYVHYASASTVLPAFGVDAWGQGTTVTVSS VL: DIVMTQSPLSLPVTPGEPASISCQASQELVHMNRNTYLHWYQQKPGQAPRLLIYKVSNRFPGVPDRFSGSGSGTDFTLKISRVEAEDVGVYYCAQGTSVPFTFGQGTKLEIK
0.7 fold | H183/L072 VH T28G (antibody, name in Kabat numbering, V domains shown) VH: QVQLVESGGGLVQPGRSLRLSCAASGFGFSNAWMHWVRQAPGKGLEWVAQIKDKGNAYAAYYAPSVKGRFTISRDDSKNSIYLQMNSLKTEDTAVYYCHYVHYASASTVLPAFGVDAWGQGTTVTVSS VL: DIVMTQSPLSLPVTPGEPASISCQASQELVHMNRNTYLHWYQQKPGQAPRLLIYKVSNRFPGVPDRFSGSGSGTDFTLKISRVEAEDVGVYYCAQGTSVPFTFGQGTKLEIK
0.9 fold | H183/L072 VH T28L (antibody, name in Kabat numbering, V domains shown) VH: QVQLVESGGGLVQPGRSLRLSCAASGFLFSNAWMHWVRQAPGKGLEWVAQIKDKGNAYAAYYAPSVKGRFTISRDDSKNSIYLQMNSLKTEDTAVYYCHYVHYASASTVLPAFGVDAWGQGTTVTVSS VL: DIVMTQSPLSLPVTPGEPASISCQASQELVHMNRNTYLHWYQQKPGQAPRLLIYKVSNRFPGVPDRFSGSGSGTDFTLKISRVEAEDVGVYYCAQGTSVPFTFGQGTKLEIK
1 fold | H183/L072 VH T28F (antibody, name in Kabat numbering, V domains shown) VH: QVQLVESGGGLVQPGRSLRLSCAASGFFFSNAWMHWVRQAPGKGLEWVAQIKDKGNAYAAYYAPSVKGRFTISRDDSKNSIYLQMNSLKTEDTAVYYCHYVHYASASTVLPAFGVDAWGQGTTVTVSS VL: DIVMTQSPLSLPVTPGEPASISCQASQELVHMNRNTYLHWYQQKPGQAPRLLIYKVSNRFPGVPDRFSGSGSGTDFTLKISRVEAEDVGVYYCAQGTSVPFTFGQGTKLEIK
0.9 fold | H183/L072 VH T28H (antibody, name in Kabat numbering, V domains shown) VH: QVQLVESGGGLVQPGRSLRLSCAASGFHFSNAWMHWVRQAPGKGLEWVAQIKDKGNAYAAYYAPSVKGRFTISRDDSKNSIYLQMNSLKTEDTAVYYCHYVHYASASTVLPAFGVDAWGQGTTVTVSS VL: DIVMTQSPLSLPVTPGEPASISCQASQELVHMNRNTYLHWYQQKPGQAPRLLIYKVSNRFPGVPDRFSGSGSGTDFTLKISRVEAEDVGVYYCAQGTSVPFTFGQGTKLEIK
1.1 fold | H183/L072 VH T28I (antibody, name in Kabat numbering, V domains shown) VH: QVQLVESGGGLVQPGRSLRLSCAASGFIFSNAWMHWVRQAPGKGLEWVAQIKDKGNAYAAYYAPSVKGRFTISRDDSKNSIYLQMNSLKTEDTAVYYCHYVHYASASTVLPAFGVDAWGQGTTVTVSS VL: DIVMTQSPLSLPVTPGEPASISCQASQELVHMNRNTYLHWYQQKPGQAPRLLIYKVSNRFPGVPDRFSGSGSGTDFTLKISRVEAEDVGVYYCAQGTSVPFTFGQGTKLEIK
0.6 fold | H183/L072 VH T28D (antibody, name in Kabat numbering, V domains shown) VH: QVQLVESGGGLVQPGRSLRLSCAASGFDFSNAWMHWVRQAPGKGLEWVAQIKDKGNAYAAYYAPSVKGRFTISRDDSKNSIYLQMNSLKTEDTAVYYCHYVHYASASTVLPAFGVDAWGQGTTVTVSS VL: DIVMTQSPLSLPVTPGEPASISCQASQELVHMNRNTYLHWYQQKPGQAPRLLIYKVSNRFPGVPDRFSGSGSGTDFTLKISRVEAEDVGVYYCAQGTSVPFTFGQGTKLEIK
